Columns and labels:
Experiment in all cases: fluorescence polarization
[1] = biological target: hPRDM9A ZnF8-12 (allele A) (Homo sapiens, allele A, UniProt Q9NQV7 717-858)
[2] = biological target: hPRDM9 ZnF8-12 N789H (allele L20) (Homo sapiens, allele L20, UniProt Q9NQV7 717-858, N790H)
hPRDM9A ZnF8-13 = hPRDM9A ZnF8-13 (Homo sapiens, allele A, UniProt Q9NQV7 717-894)
hPRDM9A ZnF8-11 = hPRDM9A ZnF8-11 (Homo sapiens, allele A, UniProt Q9NQV7 717-830)
Sequence of hPRDM9A ZnF8-11 (Q9NQV7 717-830): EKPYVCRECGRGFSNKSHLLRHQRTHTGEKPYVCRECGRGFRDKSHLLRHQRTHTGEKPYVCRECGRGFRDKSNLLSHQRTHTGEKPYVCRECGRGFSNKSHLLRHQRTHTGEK

Sequence of hPRDM9A ZnF8-13 (Q9NQV7 717-894): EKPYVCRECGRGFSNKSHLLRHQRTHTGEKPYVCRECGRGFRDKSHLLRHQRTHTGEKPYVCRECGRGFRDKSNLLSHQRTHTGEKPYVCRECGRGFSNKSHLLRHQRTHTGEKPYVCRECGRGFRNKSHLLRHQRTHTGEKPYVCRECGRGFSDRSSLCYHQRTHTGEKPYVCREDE
Sequence of hPRDM9 ZnF8-12 N789H (allele L20) (Q9NQV7 717-858 N790H): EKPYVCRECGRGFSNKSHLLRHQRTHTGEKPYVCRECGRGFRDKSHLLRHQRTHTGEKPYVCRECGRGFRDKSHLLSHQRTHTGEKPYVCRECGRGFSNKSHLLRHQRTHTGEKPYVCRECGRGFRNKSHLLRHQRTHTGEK
Sequence of hPRDM9A ZnF8-12 (allele A) (Q9NQV7 717-858): as the sequence (Q9NQV7 717-858 N790H) above, with H74N counted along it

B1: THE1B with 5mC at position 17 bottom strand (dsDNA)
DNA 1: GAGGCCTCCCTAGCCACGTGGAAC
DNA 2: GTTCCACGTGGCTAGGGAGGCCTC
modifications: 5-methylcytosine at bottom strand base 7 (C of G:C bp 17)
**Q.** For B1, which binding signal [1] is on record?
**A.** Its binding signal is ~1 fold (same as unmethylated).

B2: THE1B T:A to C:G (dsDNA)
DNA 1: GAGGCCTCCCCAGCCACGTGGAAC
DNA 2: GTTCCACGTGGCTGGGGAGGCCTC
**Q.** Does B2 bind [2]?
**A.** Result: binds

B3: THE1B 24-bp (dsDNA)
DNA 1: GAGGCCTCCCTAGCCACGTGGAAC
DNA 2: GTTCCACGTGGCTAGGGAGGCCTC
**Q.** Which binding signal (hPRDM9A ZnF8-13) does the source give for B3 here?
**A.** The binding signal was ~1 fold (similar to ZnF8-12).

**Q.** And the binding signal (hPRDM9A ZnF8-11)?
**A.** Its binding signal is ~12 fold lower affinity than ZnF8-12.

— article PMC4743056
